# Experimental data as given in the DeepSol protein solubility set.
# Experiment: soluble on expression in E. coli; label from the status in PepcDB or PDB records
row,Sequence,soluble on expression in E. coli
1,MRPEELTKRFNEFSLWMTEEGVEQMSSYRNTNWEALKTELGKLPTLRHSCKNHVPQLVKEFCLEKRRYGVNPMYVHFLFCYYKKNIEDTRGRLEDDKETLEEIQRTHDELNVKFEELNKVKTFIKKQKESKGNVYLPNEYTEKHRLQNTIDNLKDKIQILVSTRNEQLWDFDNIPDGFQPMLELHHLKKDQVVYFVEKYLQRYTLGNKHKEIQLIVGKGSHSIDNDSAIQRKIRRNYAENVRSHPKNYGILLLKVP,not soluble
2,MRPRYRASGPSSSPDRTSSQPGSRSMIQCKRVYEPASPADGRRVLVDRLWPRGIRKEALAMDDWLKEVAPSNEVRKQFCHDPALFDSFREHYRAELQAHPEHWWGLLDSAREGTLTLLYGAHDQQHNNAVVLAEFLEEELDRQQPGSSPTCYADRLS,not soluble
3,MRQHTRIANHNHYSWRIAVMTDTHSIAQPFEAEVSPANNRHVTVGYASRYPDYSRIPAITLKGQWLEAAGFATGTAVDVKVMEGCIVLTAQPPAAEESELMQSLRQVCKLSARKQKQVQAFIGVIAGKQKVA,not soluble
4,MRQSSQARETTETKIKLNLQLDESTNVSIQTGVGFFDHMLTLFARHGRFGLQVEAEGDVFVDAHHTVEDVGIVLGNCLKEALQNKEGINRYGSAYVPMDESLGFVAIDISGRSYCVFQGELTNPKLGDFDTELTEEFFRAVAHAANITLHARVLYGSNTHHKIEALFKAFGRALREAVEKNANITGVNSTKGML,not soluble
5,MRQWTATHMAKLARKASIAVGKKGTDLPGQIARRVDHNILRKLAKQVDDIVFISGTNGKTTTSNLIGHTLKKNQINIIHNNEGANMAAGITSAFIMQSSKNTNIAIIEIDEGSIPRVLNEVTPSMMVFTNFFRDQMDRFGEIDIMVDNIAKSISNKGIKLLLNADDPFVSRLKIASHSIVYYGMKKFAHDFEQSTMNESKYCPNCGRLLQYDYIHYNQIGHYHCECGFKREEPTYEVSSFDASPFLKMIINQSEFNMKIAGDFNSYNAIAAYTVLRELGLNDDAIRKGFETYTSDNGRMQYFSKNKKEAMINLAKNPAGMNASLSVGEQIDDKKIYVISLNDNAADGRDISWIYDADFEKLATQDIEAIIVSGTRAEELQLRLKLAEVEVPIKVEKDIYKATALTMKYSSFTVAIPNYTSLTPMLEQLNRSFEGGQS,not soluble
6,MRRAEMLLLKSLAETLMADRDNRHDDLQATMRLAHLSSPEMILYMVNRVLELEESIERIAAVLQKLSADEPMPLEETPPEPAFEPALQSRATETAET,not soluble
7,MRRELGMGSEWLGEECEIVMGQSPPSETCNTVGIGIPLLNGPTEFGPHHPSPAQFTTDVRKRAIPGDILFCVRGSTTGRMNWADQEYAIGRGIAAIRHKFKPELQPFVRAVIECYLPELLAQATGSTFPNVSAQQLSNLKWPELAADEQRAIAYILGTLDDKIELNRKQNETLEAMARALFKAWFVDFEPVRAKLEGRWQRGQSLPGLPAHLYDLFPDCLVDSELGEIPEGWEIGSFADVVEIIGGSTPKTSVSEYWGGDIPWFSVVDTPASSDVFVVQTEKSITQSGLNESSARLISKGTTIISARGTVGNLAIAGCDMTFNQSCYALRSKNSLGSYFVFLSAQRMVEQLKAMAHGSVFSTITRQTFEAVQTVLPPENVLQQFERSFASLFDEILNNVNESRTLAKLRDTLLPKLISGELRVNDAKRILARIELDTATQRREQ,soluble
8,MRRVEKVIIVEGRSDKQKVAAVLNEPVVIVCTNGTISDARLEELADELEGYDVYLLADADEAGEKLRRQFRRMFPEAEHLYIDRAYREVAAAPIWHLAQVLLRARFDVRIESLMRGRGE,soluble
9,MRRVNILCSFALLFASHTSLAVTYPLPPEGSRLVGQSFTVTVPDHNTQPLETFAAQYGQGLSNMLEANPGADVFLPKSGSQLTIPQQLILPDTVRKGIVVNVAEMRLYYYPPDSNTVEVFPIGIGQAGRETPRNWVTTVERKQEAPTWTPTPNTRREYAKRGESLPAFVPAGPDNPMGLYAIYIGRLYAIHGTNANFGIGLRVSQGCIRLRNDDIKYLFDNVPVGTRVQIIDQPVKYTTEPDGSNWLEVHEPLSRNRAEYESDRKVPLPVTPSLRAFINGQEVDVNRANAALQRRSGMPVQISSGSRQMF,not soluble
10,MRSQRELTSPMTPLENPGDISDKPRLTTQKLSLGYGQQLIINKLSLSIKNGAFSVIIGPNGCGKSTLLRALSRSLLPQNGSIRLDQQDIQHYKAKVFARQLSLLSQGASISETLTVFDLVSRGRYAHQSFFHQWSTEDERIVKAAISAVNLESLVQQRVSELSGGQRQRAWFAMTLAQHTPIVLLDEPTTYLDIAHQIEMLDLCQELQQQGKTLVLVLHDINQALRYATHLIMLKEGQIYAEGLPESIVTEDSIAAVFGLRCRIITDPESGKPLVIPRRQSR,not soluble
11,MRSSQAIDFERIPEMEDKWRKEITAMTVTLQDKRKAIQNDEILRGVHPKSHGCLDAEFTVNRDIAPQFQVGLFAQPGKCFRARIRYSNADVLKRADLEKGQDATGARFLNHGSRGMAIKVLDVGAPVLLEDGCARNQDFLMVNTPEFAFRNVRDYLRLTKALCASADGADPLLFFLPGELLKRGMMDMSGSLLPAPAGEPPQNAGLRALFEANRAFFDDFDAEDMQGVISAAGVVGKIQSTPVRNPLFAPYFSAASFRFGKDRVMRFSVVPLQSEEMAADMASDAFEDFSDDYLSQALALSVATNEPIKLSFRIQIAHEEDIVNDIDGMIENAAKTWDEDQFSHTEVAQITINPPCPSAELVDTCKPLLFTPWHAVVDFEPLGGINRLRKPVYSTSAAFRRSVLEHHHHHH,not soluble
12,MRSVLQSEVSECGLASLAMVANAHGKHLTLSQLRQRFPSSLKGAKLTHLVHIAQQLGFSTRPLRLDMEDLGKLKLPCILHWDLNHFVVLAKVGTTKVTIYDPAIGKRKLSLNEVSKYFTGIALELTTTTE,not soluble
13,MRTVSHPTPLRRAPVQRRSAERLTRILDACADLLDEVGYDALSTRAVALRADVPIGSVYRFFGNKRQMADALAQRNLERYAERVTERLTEAGDGGWRGALDTVLDEYLAMKRTAPGFSLIDFGNQIPVGDRHAVPNHRVAERLTELLSGYLGRRPDDDLRRVFLVAVETADTLVQLAFRVAPDGDEKIIEEARELLRAYLGRVLD,soluble
14,MRVALTIAGSDSGGGAGVQADLKVFFRFGVYGTSALTLVTAQNTLGVQRVHLLPPEVVYAQIESVAQDFPLHAAKTGALGDAAIVEAVAEAVRRFGVRPLVVDPVMVAKSGDPLLAKEAAAALKERLFPLADLVTPNRLEAEALLGRPIRTLKEAEEAAKALLALGPKAVLLKGGHLEGEEAVDLLATRGGVLRFSAPRVHTRNTHGTGCTLSAAIAALLAKGRPLAEAVAEAKAYLTRALKTAPSLGHGHGPLDHWA,soluble
15,MRVFVVGGTGFVGQEVVRLLLARGHTPLVLARRSRPLPEGAVLVEGDIAREVPDLEGVEAAIYLAGIIRERGQTFRAVHVEGVRNLLRAMERAGVGRLLHMSALGARPEAPSRYHRTKAEGEALVRQSGLSHAIFRPSLIFGPGDEFFGRVLRGLVCAPLPFVPLIGDGGFPFRPVYVGDVAEAFVGALERGLEGTYDLVGPKEYSFRELLQLVMEVLGRRKPFLSLPLWLMDRLVPLLSPLPISPLTLDQYLMLKEGNTAPFPEALKELLPAPQALEEVLPRYLRC,soluble
16,MRVYVFTPDGDVLDLPHGVTPLDFAYHVHSNLGHRCRGAKVNGHIVPLTYQLKTGDRVEVLTGKEIKPSRLEHHHHHH,not soluble
17,MRYFIVAGEASGDLHASNLVRALKEHDPEAVFAFMGGDFLSEATGERPIFHYREVAFMGFIPVLTHLGVIRRAGEHVQEQMRAFNPDVVIAVDYPGFNMRYVLPFVREELGKPIVYYISPKVWAWKSWRIKTLKKYVDLMLCILPFEKDFFAGHDFPVIYVGNPCYDAVKQHMRPTIEEQERSAKDSRQVALLCGSRLLEVKENLPVMLRVMKQFPDYRPVIAGAPGLTIQDYTPFLPDDSIPVVFGRTYEILRESKAALVTSGTATLETALIGTPQVVCYYIRGGRLTNLIFKYCFGTPFISLTNLIAGRAVVPELFGALFTEKRLAASLSPLLDASSAERQAQLSGYDSIRKSIGTDNTSDKAARHIIARFAKDNARPSSL,not soluble
18,MRYTILTKGDSKSNALKHKMINHMKDFQMVEDSENPEIVISVGGDGTLLQAFHQYSHMLSKVAFVGIHTGHLGFYADWLPHEVEKLIIEINNSEFQVIEYPLLELIVRYNDNGYETRYLALNEATMKTENGSTLVVDVNIRGKHFERFRGDGLCISTPSGSTAYNKALGGALIHPSLEAMQIAEIASINNRVFRTVGSPLVLPKHHTCLITPVNHDTIRTTIDHVSIKHKNVNAIQYRVANEKVRFARFRPFPFWKRVHDSFISSDDERMAGDPLEHHHHHH,soluble
19,MSAEVETSEGVDESEKKNSGALEKENQMRMADLSELLKEGTKEAHDRAENTQFVKDFLKGNIKKELFKLATTALYFTYSALEEEMERNKDHPAFAPLYFPMELHRKEALTKDMEYFFGENWEEQVQCPKAAQKYVERIHYIGQNEPELLVAHAYTRYMGDLSGGQVLKKVAQRALKLPSTGEGTQFYLFENVDNAQQFKQLYRARMNALDLNMKTKERIVEEANKAFEYNMQIFNELDQAGSTLARETLEDGFPVHDGKGDMRKCPFYAAEQDKGALEGSSCPFRTAM,soluble
20,MSAFQGNMFVLVNVDQHRDLIGPIINQLVADYGTPVSIVDNIQKICPKCSCTPHANPDSSSVPTTTSSDEHQEEPPTPKTIAPAPIATPVLKPLLPQRESIVSNGIHPVVVKRKQSIAEEIDTPEIKKSRVVEPVKVKTETIILDDDDGNVLDTVLAALQNGNHEMQFTGSGGSSDDGASNSSNIYDVDDEDYGTSQWNPDFLTNFITSQPNIFSVTGQNIKSSPSKNAGQTPNGKRQVPPMLTVNGKTRRGRIVYSTQELNILEKYYEEDPNACADPRKRETMCKTLSIDYHRLKVWFQNRRRKDKVRSQEEAATTFNGLDYSEDS,not soluble
21,MSAIIDPSTGKPFKADKQIMGEDIARAYTTGIRNPRPTSVASTITPQRLAGVLRSVIDGNDPEAYMTLAEEIEERDLHYAAQLRTRKFAVAAITPTVEAASDDAIDVLMAERAREIINDDQIPELFFDLLDGLGKGLAVVQILWDTKSTPWKPQDYKWVDPRYLRQDQQTLEQILLISEDAPMGAELEPYKFIIHTPRSKSGSVWRNGLARLVAVMYMLKSFTVRDWWAFAEVFGVPVRVGKYGANASESDISTLINAIGRIASDAGAVIPESMKLELIETAKGNGGDTLFENMARWCDEQISKAVLGQTMTADNGSSQSQATVHNEVRIDIAKWDARQLEASINEYLIKPYIILNWGEQLRYPKVRIKVPEPEDLQLLVNSLTPLIDRGLKVSASEMADKLGLGTVDADEDILLPFQTVGIQAMPTALNRANSQTIAINQVRNTAEREIDNLANEAMGEWEQVAEEFMNPIIDLANKSASYDEFAAGLPALQQQLGAEQFIAQMAQYMFQLRGLGDAQDG,soluble
22,MSAIKVFILSDSIGETAHNVALAAAAQFSDYDIRYQRFPFVRTDSLLQTVLSQALKEHAAIFHTFVDRRLSQIVNQFCEAHELPYYDVITPALDTFSQITHVQPSNHPGTVHALNTNYFDRINAIEFAVTYDDGKNPSGFLEADVVLLGVSRTSKTPLSLYLANRNLKVANLPLVPQAQIPDEIWKVDPKKIFGLTNDPEKLNDIRRQRMVQYGLNPDTMYSNTDKIKAELEYADKIFKKIGCLVINVANKSIEETATLITESLNTDDTNNGLEHHHHHH,soluble
23,MSAKHPVIAVTGSSGAGTTTTSLAFRKIFAQLNLHAAEVEGDSFHRYTRPEMDMAIRKARDAGRHISYFGPEANDFSLLEHTFIEYGQTGKGQSRKYLHTYDEAVPWNQVPGTFTPWQPLPEPTDVLFYEGLHGGVVTPQHDVARHVDLLVGVVPIVNLEWIQKLIRDTSERGHSREAVMDSVVRSMDDYINYITPQFSRTHINFQRVPTVDTSNPFAAKGIPSLDESFVVIHFRNLEGIDFPWLLAMLQGSFISHINTLVVPGGKMGLAMELIMLPLVQRLMEGKKIE,not soluble
